# Measured values taken from patent publication US8895526B2, “Identification of RNAI targets and use of RNAI for rational therapy of chemotherapy-resistant leukemia and other cancers” (Cold Spring Harbor Laboratory, priority 2009, dated 2014).
# B1: Mn1.5864: neutral control shRNA, SEQ ID NO: 208 (nucleic acid)
# chain: TGCTGTTGACAGTGAGCGCATCGCTATTGCACATGTATAATAGTGAAGCCACAGATGTATTATACATGTGCAATAGCGATTTGCCTACTGCCTCGGA
# B2: Kit.1241: neutral control shRNA, SEQ ID NO: 194 (nucleic acid)
# chain: TGCTGTTGACAGTGAGCGATTCCGTGACATTCAACGTTTATAGTGAAGCCACAGATGTATAAACGTTGAATGTCACGGAAGTGCCTACTGCCTCGGA
# B3: Ptgs2.1082: neutral control shRNA, SEQ ID NO: 209 (nucleic acid)
# chain: TGCTGTTGACAGTGAGCGCCAAGATAGTGATCGAAGACTATAGTGAAGCCACAGATGTATAGTCTTCGATCACTATCTTGATGCCTACTGCCTCGGA
# B4: Orc2mil903: shRNA targeting ORC2, SEQ ID NO: 18 (nucleic acid)
# chain: TGCTGTTGACAGTGAGCGAGGAACTGATGGAGTAGAGTATTAGTGAAGCCACAGATGTAATACTCTACTCCATCAGTTCCCTGCCTACTGCCTCGGA
# B5: Trp53.1224: neutral control shRNA, SEQ ID NO: 214 (nucleic acid)
# chain: TGCTGTTGACAGTGAGCGCCCACTACAAGTACATGTGTAATAGTGAAGCCACAGATGTATTACACATGTACTTGTAGTGGATGCCTACTGCCTCGGA
# B6: BRAF.3826: neutral control shRNA, SEQ ID NO: 192 (nucleic acid)
# chain: TGCTGTTGACAGTGAGCGCCCCATTGTTTCTTCCAACTTATAGTGAAGCCACAGATGTATAAGTTGGAAGAAACAATGGGATGCCTACTGCCTCGGA
# B7: mi550: shRNA targeting ORC1, SEQ ID NO: 17 (nucleic acid)
# chain: TGCTGTTGACAGTGAGCGCGGAAATATTCTGGTATGATTATAGTGAAGCCACAGATGTATAATCATACCAGAATATTTCCTTGCCTACTGCCTCGGA
# B8: shPCNA.538: shRNA, SEQ ID NO: 56 (nucleic acid)
# chain: TGCTGTTGACAGTGAGCGCGGAGTACAGCTGTGTAATAAATAGTGAAGCCACAGATGTATTTATTACACAGCTGTACTCCTTGCCTACTGCCTCGGA
# B9: Smarcd1.1858: shRNA, SEQ ID NO: 70 (nucleic acid)
# guide: TGCTGTTGACAGTGAGCGCTAGGACCTCTAGATAGTGTTATAGTGAAGCCACAGATGTATAACACTATCTAGAGGTCCTATTGCCTACTGCCTCGGA
# B10: Orc2mil981: shRNA targeting ORC2, SEQ ID NO: 19 (nucleic acid)
# chain: TGCTGTTGACAGTGAGCGAGAGGCTTGAAGCTTTCCTTTATAGTGAAGCCACAGATGTATAAAGGAAAGCTTCAAGCCTCCTGCCTACTGCCTCGGA
# B11: Suz12.1676: shRNA, SEQ ID NO: 75 (nucleic acid)
# guide: TGCTGTTGACAGTGAGCGATAGGATAGATGTTTCAATCAATAGTGAAGCCACAGATGTATTGATTGAAACATCTATCCTAGTGCCTACTGCCTCGGA
# B12: Renilla.713: neutral control shRNA, SEQ ID NO: 213 (nucleic acid)
# chain: TGCTGTTGACAGTGAGCGCAGGAATTATAATGCTTATCTATAGTGAAGCCACAGATGTATAGATAAGCATTATAATTCCTATGCCTACTGCCTCGGA
# B13: BRAF.3750: neutral control shRNA, SEQ ID NO: 191 (nucleic acid)
# chain: TGCTGTTGACAGTGAGCGCTAGCATAATGACAATTATTTATAGTGAAGCCACAGATGTATAAATAATTGTCATTATGCTAATGCCTACTGCCTCGGA
# B14: Ptgs2.284: neutral control shRNA, SEQ ID NO: 211 (nucleic acid)
# chain: TGCTGTTGACAGTGAGCGAAAGAATCAAATTACTGCTGAATAGTGAAGCCACAGATGTATTCAGCAGTAATTTGATTCTTGTGCCTACTGCCTCGGA
# B15: BRAF.5053: neutral control shRNA, SEQ ID NO: 193 (nucleic acid)
# chain: TGCTGTTGACAGTGAGCGCTAGGGTGATGTCTCACTTGAATAGTGAAGCCACAGATGTATTCAAGTGAGACATCACCCTATTGCCTACTGCCTCGGA
# B16: Ptgs2.2058: neutral control shRNA, SEQ ID NO: 210 (nucleic acid)
# chain: TGCTGTTGACAGTGAGCGCCCGGTGTTTGTCCTTTAAATATAGTGAAGCCACAGATGTATATTTAAAGGACAAACACCGGATGCCTACTGCCTCGGA
# B17: Eed.1829: shRNA targeting Eed; probably Eed.1820, SEQ ID NO: 227 (nucleic acid)
# guide: TGCTGTTGACAGTGAGCGCTAGAAGTAATGTATCTTGCTATAGTGAAGCCACAGATGTATAGCAAGATACATTACTTCTATTGCCTACTGCCTCGGA
# B18: Ptgs2.3711: neutral control shRNA, SEQ ID NO: 212 (nucleic acid)
# chain: TGCTGTTGACAGTGAGCGCAACGTTCATGGATAAATTCTATAGTGAAGCCACAGATGTATAGAATTTATCCATGAACGTTATGCCTACTGCCTCGGA
# How the values were obtained:
# [1] = test system: tet-on competent MLL/AF9+Nras AML; experiment: Pooled negative selection RNAi screening (deep sequencing); type: cell-based, mouse; conditions: deep sequencing reads, On Dox compared to T0
# In short: (§1)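 A pool of 1230 tet-regulated shRNAs (TRMPV-type) was retrovirally transduced at mostly single copy and ~1000-fold representation into tet-on MLL/AF9+Nras AML cells or immortalized murine embryonic fibroblasts, then cultured on or off doxycycline. shRNA-expressing cells were FACS-sorted, and shRNA representation was quantified by PCR and deep sequencing of genomic DNA, with depletion on dox compared against t0 and off dox.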
# [2] = test system: immortalized murine embryonic fibroblasts (Mef); experiment: as above; type: cell-based; conditions: deep sequencing reads, on dox compared to initial representation
# In short: as §1
# HCT116 cells = experiment: HCT116 proliferation assay: cell counts of shRNA-transduced cultures; type: cell-based, human; conditions: 5 days post-infection; normalized to EBNA1mi1666 and Lucifmi203 cultures
# Method: HCT116 cultures in 24-well plates were infected separately with amphotropic retrovirus encoding 254 different shRNAs targeting 83 cell cycle and/or E2F regulated genes. On day 1 following infection each culture was suspended in media containing 1.5 μg/mL puromycin to select for cells transduced with the hairpins, then seeded to 6-well plates. On day 5 following infection, cells in each culture were suspended in media and counted using a hemacytometer. Results for each culture were normalized to the average of the number of cells counted in cultures transduced with hairpins targeting either of two different genes not endogenous to HCT116 cells (EBNA1 and Ff-luciferase).
# About 24 hours prior to infection, 150,000 HCT116 cells were seeded per well of a 24-well plate in 0.4 mL DMEM+10% FBS. At the time of the first round of infection, culture media was aspirated from each HCT116 culture and 0.5 mL media containing virus, obtained from ˜36-hour post-transfection packaging cell culture as described above, was added to each HCT116 culture. Each HCT116 culture was infected with virus encoding a particular shRNA. […]
# About 24 hours after the second round of infection of the HCT116 cultures, cells from each culture were suspended and seeded to 6-well plates in 2 mL DMEM+10% FBS+1.5 μg/mL puromycin per well. […] Following two more days of growth (day 5 post-infection), cells in each culture were suspended in complete DMEM and cell numbers per culture were counted using a hemacytometer. […]
# In each experiment, HCT116 cells were also transduced with hairpins against EBNA1 (EBNA1mi1666) and Ff-luciferase (lucifmi203). […] Similar to cultures transduced with other shRNAs, on day 5 post-infection, HCT116 cells in cultures transduced with either EBNA1mi1666 or Lucifmi203 were suspended and counted using a hemacytometer. […]
# The average cell number in HCT116 cultures transduced with EBNA1mi1666 and Lucifmi203 was calculated for each experiment and cell numbers in cultures transduced with the other shRNAs in the given experiment were normalized to this value. […]
# Hepa1.6 cells = experiment: In vitro competition assay in Hepa1.6 cells; type: cell-based, mouse; conditions: five passages 1:8
# From the text: Two days after transduction with a GFP-tagged vector, the number of fluorescent cells was quantified. Cells were passaged 1:8 five times, and the number of GFPpositive transduced cells was quantified at each passage.
# [3] = test system: normal hematopoietic cells; experiment: Dual-color competition assay of hematopoietic reconstitution in vivo; conditions: 4 weeks after transplantation, LMN-GFP vs mCherry control
# Method: LMN vectors harboring shRNAs are transduced into fetal livers. Infected cells are subsequently transplanted into lethally irradiated recipients. This assay compares the relative contribution of the experimental shRNA (in an LMN vector harboring a GFP marker) to a control, neutral shRNA (in an LMN vector harboring a red fluorescent protein marker (mCherry)). The effect of the experimental shRNA on hematopoesis is assessed by the ratio of these two markers in subsets of peripheral blood cells, or bone marrow or spleen, measured at 4 weeks.
# As an additional verification that therapy resistant AML leukemias harbor a unique sensitivity to inhibition of the identified epigenetic pathways, the influence of the epigenetics shRNAs on normal hematopoiesis was also examined in vivo following retroviral transduction of LMN (MSCV-miR30/shRNA-PGK-Neo-IRES-GFP; constructed by inserting a miR30-cassette and a PGK-NeomycinR-IRES-GFP cassette in the MSCV-backbone (Clontech)) into E13.5 fetal livers and subsequent transplantation of infected cells into lethally irradiated recipients (FIG. 27). This assay compares the relative contribution of the experimental shRNA vector (linked with GFP) to control, neutral shRNA LMN vector that harbors the red fluorescent protein (mCherry). At 4 weeks following transplantation of the mixed GFP+ and mCherry+ cells into recipient animals, the ratio of these two colors is measured in subsets of peripheral blood cells of various hematopoietic lineages or in bone marrow and spleens by co-staining with surface markers (e.g. Mac1, Gr1 for myeloid, B220 for B-lymphoid).
Molecule,Fold depletion in AML [1] [Fold],Fold depletion in Mef [2] [Fold],also measured
B1,0.61,1.09,–
B2,1.88,0.99,–
B3,0.51,0.51,–
B4,–,–,Cell # in culture/average cell number in negative control cultures (HCT116 cells): 0.7115
B5,0.10,0.84,–
B6,0.92,0.87,–
B7,–,–,Cell # in culture/average cell number in negative control cultures (HCT116 cells): 0.8719
B8,–,–,"competition with uninfected GFP-negative cells (Hepa1.6 cells): outcompeted by uninfected, GFP-negative cells"
B9,–,–,"impact on proliferation of normal hematopoietic cells in vivo [3]: little, if any impact"
B10,–,–,Cell # in culture/average cell number in negative control cultures (HCT116 cells): 0.8496
B11,–,–,"impact on proliferation of normal hematopoietic cells in vivo [3]: little, if any impact"
B12,1.29,1.02,–
B13,0.76,1.08,–
B14,0.34,1.21,–
B15,0.66,0.33,–
B16,1.78,1.27,–
B17,–,–,"impact on proliferation of normal hematopoietic cells in vivo [3]: little, if any impact"
B18,1.38,1.46,–
